Laboratory results from paper PMC11016868.

T1: MtrAC (MtrA DNA-binding domain) (UniProt P9WGM7 131-228)
T1 sequence: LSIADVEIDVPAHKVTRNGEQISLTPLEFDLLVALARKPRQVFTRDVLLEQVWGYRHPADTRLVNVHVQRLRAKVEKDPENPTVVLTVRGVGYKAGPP


How the values were obtained:
PhoP = PhoP (UniProt P71814 1-247); test: fluorescence polarization
[1] = molecular target: T1, MtrAC (MtrA DNA-binding domain); test: fluorescence polarization

Row | Binder | binding result (PhoP) | Kd [1]
1 | PhoP DNA (from PhoP-DNA complex, 5ED4) (dsDNA) DNA 1: GATTCACAGCTGATTCACAGCATCTA DNA 2: TAGATGCTGTGAATCAGCTGTGAATC | binds | 
2 | dnaA promoter DNA (dsDNA) DNA 1: GGCGGTGTAGTTATCACGCCGTTT DNA 2: AAACGGCGTGATAACTACACCGCC |  | 1230 ± 260 nM
